{"source": "patent US20240216425A1", "about": "“Engineered Macrophages for Cancer Immunotherapy” (The Trustees of the University of Pennsylvania, priority 2022, published 2024)", "molecules": {"B1": {"name": "IL-4: interleukin-4 cytokine used to prime macrophages (BioLegend 574302) (protein, UniProt P07750 21-140, looked up)", "Interleukin-4": "HIHGCDKNHLREIIGILNEVTGEGTPCTEMDVPNVLTATKNTTESELVCRASKVLRIFYLKHGKTPCLKKNSSVLMELQRLFRAFRCLDSSISCTMNESKSTSLKDFLESLKSIMQMDYS"}, "B2": {"name": "IFNγ: interferon-γ cytokine used to prime macrophages (BioLegend 575302) (protein, UniProt P01580 23-155, looked up)", "Interferon gamma": "HGTVIESLESLNNYFNSSGIDVEEKSLFLDIWRNWQKDGDMKILQSQIISFYLRLFEVLKDNQAISNNISVIESHLITTFFSNSKAKKDAFMSIAKFEVNNPQVQRQAFNELIRVVHQLLPESSLRKRKRSRC"}}, "key": {"[1]": {"system": "macrophages in CD47 KO tumoroids", "experiment": "Macrophage clustering in tumoroids (entropy image analysis, radial profiles, cluster area)", "assay_type": "cell-based, mouse", "details": "2 mM chelator added ~24 h after macrophages and anti-Tyrp1, read 3 h later", "description": "Tumoroids. To generate surfaces conducive to B16 tumoroid formation, 96-well plates (Greiner Bio-One 650161) were either coated with 70 μL of 2% agarose in water or PBS or, more commonly, treated for 20 min with 100 μL of anti-adherence rinsing solution (StemCell Technologies 07010). The wells were washed with PBS, and then blocked with 0.5-1% (w/v) bovine serum albumin (BSA, Sigma) 37° ° C. for 1 h. B16 were detached by brief trypsinization, resuspended in RPMI supplemented with 10% FBS, 1× non-essential amino acid solution (Gibco 11140050) and 1 mM sodium pyruvate (Gibco 11360070) at a concentration of 1×103 or 1×10^4 per mL, and added to passivated wells in a volume of 100 μL. […] For tumoroid disaggregation studies, EDTA and EGTA were added in PBS to obtain a final concentration of 2 mM, and in some cases magnesium sulphate was also added for a final concentration of 5 mM Mg2+. Latrunculin A (Invitrogen L12370) dissolved at 1 μM in DMSO was further diluted in PBS and added to obtain a final concentration of 1 μM. […] Tumoroid areas were measured in Fiji/ImageJ after thresholding GFP fluorescence using built-in thresholding algorithms and manually adjusting the threshold as needed."}, "[2]": {"system": "B16 tumoroids", "assay_type": "cell-based, mouse", "description": "Tumoroids. To generate surfaces conducive to B16 tumoroid formation, 96-well plates (Greiner Bio-One 650161) were either coated with 70 μL of 2% agarose in water or PBS or, more commonly, treated for 20 min with 100 μL of anti-adherence rinsing solution (StemCell Technologies 07010). The wells were washed with PBS, and then blocked with 0.5-1% (w/v) bovine serum albumin (BSA, Sigma) 37° ° C. for 1 h. B16 were detached by brief trypsinization, resuspended in RPMI supplemented with 10% FBS, 1× non-essential amino acid solution (Gibco 11140050) and 1 mM sodium pyruvate (Gibco 11360070) at a concentration of 1×103 or 1×10^4 per mL, and added to passivated wells in a volume of 100 μL. […] For tumoroid disaggregation studies, EDTA and EGTA were added in PBS to obtain a final concentration of 2 mM, and in some cases magnesium sulphate was also added for a final concentration of 5 mM Mg2+. Latrunculin A (Invitrogen L12370) dissolved at 1 μM in DMSO was further diluted in PBS and added to obtain a final concentration of 1 μM. For phagocytosis versus growth studies, CellTracker Deep Red-labeled BMDMs and antibodies (final concentration 20 μg/mL anti-Tyrp1 and/or 20 μg/mL anti-CD47 or 10 μg/mL anti-SIRPα) or mouse serum (final concentration 1:200) were added 24 h later in a volume of 20 μL RPMI growth media with 120 ng/mL M-CSF. For myosin-II inhibition studies, 20 μM blebbistatin (MilliporeSigma 203389) or an equal volume of DMSO vehicle was added to B16 tumoroids for 1 h prior to addition of BMDMs. Tumoroids were imaged on the Olympus IX microscope with 20×/0.4 NA, 10×/0.3 NA, or 4×/0.13 NA objectives. Tumoroid areas were measured in Fiji/ImageJ after thresholding GFP fluorescence using built-in thresholding algorithms and manually adjusting the threshold as needed."}, "[3]": {"system": "CD47 KO B16 tumoroids", "experiment": "Immuno-tumoroid growth with bone marrow-derived macrophages", "assay_type": "cell-based, mouse", "details": "for tumoroid elimination and macrophage clusters: macrophages pre-treated with cytokine (20 ng/mL, 48 h)", "description": "Tumoroids. To generate surfaces conducive to B16 tumoroid formation, 96-well plates (Greiner Bio-One 650161) were either coated with 70 μL of 2% agarose in water or PBS or, more commonly, treated for 20 min with 100 μL of anti-adherence rinsing solution (StemCell Technologies 07010). The wells were washed with PBS, and then blocked with 0.5-1% (w/v) bovine serum albumin (BSA, Sigma) 37° ° C. for 1 h. B16 were detached by brief trypsinization, resuspended in RPMI supplemented with 10% FBS, 1× non-essential amino acid solution (Gibco 11140050) and 1 mM sodium pyruvate (Gibco 11360070) at a concentration of 1×103 or 1×10^4 per mL, and added to passivated wells in a volume of 100 μL. A single aggregate of B16 cells formed in each well, typically within 12 h. For tumoroid disaggregation studies, EDTA and EGTA were added in PBS to obtain a final concentration of 2 mM, and in some cases magnesium sulphate was also added for a final concentration of 5 mM Mg2+. Latrunculin A (Invitrogen L12370) dissolved at 1 μM in DMSO was further diluted in PBS and added to obtain a final concentration of 1 μM. For phagocytosis versus growth studies, CellTracker Deep Red-labeled BMDMs and antibodies (final concentration 20 μg/mL anti-Tyrp1 and/or 20 μg/mL anti-CD47 or 10 μg/mL anti-SIRPα) or mouse serum (final concentration 1:200) were added 24 h later in a volume of 20 μL RPMI growth media with 120 ng/mL M-CSF. For myosin-II inhibition studies, 20 μM blebbistatin (MilliporeSigma 203389) or an equal volume of DMSO vehicle was added to B16 tumoroids for 1 h prior to addition of BMDMs. Tumoroids were imaged on the Olympus IX microscope with 20×/0.4 NA, 10×/0.3 NA, or 4×/0.13 NA objectives. Tumoroid areas were measured in Fiji/ImageJ after thresholding GFP fluorescence using built-in thresholding algorithms and manually adjusting the threshold as needed.\nStatistical analysis and curve fitting. Statistical analyses and curve fitting were performed in Prism v8.4-v9.4 (GraphPad) and MATLAB R2020a (MathWorks). Details for each analysis are provided in figure legends, and exact p values are provided. […]"}, "[4]": {"biological_target": "CD47 on B16-F10 mouse melanoma cells (also on RM-9 mouse prostate cancer cells) (mouse) (UniProt Q61735)", "sequence (Q61735 19-303)": "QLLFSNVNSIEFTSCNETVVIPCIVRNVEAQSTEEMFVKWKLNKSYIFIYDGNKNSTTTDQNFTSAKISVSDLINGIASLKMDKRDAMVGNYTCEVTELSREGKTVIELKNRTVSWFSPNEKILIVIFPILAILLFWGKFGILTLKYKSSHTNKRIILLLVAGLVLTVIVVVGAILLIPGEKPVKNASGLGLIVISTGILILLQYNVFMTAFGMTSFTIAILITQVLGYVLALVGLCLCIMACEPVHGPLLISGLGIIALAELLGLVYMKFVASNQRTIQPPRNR", "experiment": "flow cytometry titration on B16 cells, secondary antibody AF647, median fluorescence fit to y=A*x/(K+x); apparent K on cells"}, "[5]": {"biological_target": "Tyrp1 (tyrosinase-related protein 1) on B16-F10 mouse melanoma cells (mouse) (UniProt P07147)", "sequence (P07147 25-537)": "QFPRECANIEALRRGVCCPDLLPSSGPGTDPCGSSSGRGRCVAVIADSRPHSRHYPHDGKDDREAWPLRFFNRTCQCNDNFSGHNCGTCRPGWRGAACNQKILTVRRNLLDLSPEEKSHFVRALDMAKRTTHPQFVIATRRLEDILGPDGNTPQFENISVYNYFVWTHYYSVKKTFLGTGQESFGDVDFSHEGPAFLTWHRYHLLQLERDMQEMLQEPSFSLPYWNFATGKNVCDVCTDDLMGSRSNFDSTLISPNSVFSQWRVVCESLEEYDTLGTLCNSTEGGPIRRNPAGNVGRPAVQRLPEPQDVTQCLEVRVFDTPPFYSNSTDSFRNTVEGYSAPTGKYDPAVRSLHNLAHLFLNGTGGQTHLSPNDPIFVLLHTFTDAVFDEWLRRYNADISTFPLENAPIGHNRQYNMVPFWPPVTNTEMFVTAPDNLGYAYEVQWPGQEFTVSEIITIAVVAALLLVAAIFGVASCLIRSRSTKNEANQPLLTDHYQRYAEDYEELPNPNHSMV", "experiment": "flow cytometry titration on B16 cells, secondary antibody AF647, median fluorescence fit to y=A*x/(K+x); apparent K on cells"}, "[6]": {"system": "macrophage monocultures", "experiment": "Macrophage monocultures on non-adhesive surfaces, clustering", "assay_type": "cell-based, mouse", "details": "20 ng/mL cytokine", "description": "Bone marrow-derived macrophages (BMDMs). Bone marrow was harvested from donor mice, lysed with ACK buffer (Gibco A1049201) to deplete red blood cells, and cultured on Petri dishes for 7 days in IMDM (Gibco 12440053) supplemented with 10% FBS, 1% P/S, and 20 ng/ml recombinant mouse macrophage colony-stimulating factor (M-CSF, BioLegend 576406). Successful differentiation was confirmed by flow cytometry staining with antibodies against macrophage markers. Cytokine-primed BMDMs were cultured in RPMI growth media+20 ng/ml M-CSF+20 ng/mL IFNγ (BioLegend 575302) or 20 ng/ml IL-4 (BioLegend 574302) for 48 h prior to use in tumoroid assays or prior to analysis of protein expression by flow cytometry. […]\nEntropy image analysis. Fluorescence images of CellTracker Deep Red-labeled macrophages were converted to binary images of black cells on a white background using the Otsu threshold algorithm in ImageJ. The number of dark pixels was determined from the image histogram, and the image was saved as a PNG file, which is a form of lossless file compression to determine the compressed file size as a measure of entropy. Random and structured images were generated and analyzed using the Python NumPy and PIL/Pillow packages, respectively."}, "[7]": {"details": "2 mM EDTA or EGTA, 1 μM Latrunculin A"}}, "note": "“Also recorded” adds a separate entry of the source. Read-outs that look alike come from different tables or passages of the source.", "data": [{"molecule": "O=C(O)CN(CCN(CC(=O)O)CC(=O)O)CC(=O)O", "note": "[EDTA]", "values": [{"measurement": "macrophage cluster projected area / disaggregation of macrophages", "setting": "[1]", "value": "rapid disaggregation of macrophages; also recorded: increases significantly"}, {"measurement": "tumoroid projected area / B16 aggregates", "setting": "[2]", "value": "rapid (<1 h) increase"}]}, {"molecule": "O=C(O)CN(CCOCCOCCN(CC(=O)O)CC(=O)O)CC(=O)O", "note": "[EGTA]", "values": [{"measurement": "tumoroid projected area / B16 aggregates", "setting": "[2]; [7]", "value": "did disrupt B16 aggregates; also recorded: rapid (<1 h) increase"}]}, {"molecule": "C/C1=C/C(=O)O[C@@H]2C[C@@H](CC[C@H](C)/C=C\\C=C\\CC1)O[C@@](O)([C@@H]1CSC(=O)N1)C2", "note": "[Latrunculin A]", "values": [{"measurement": "tumoroid projected area / B16 aggregates", "setting": "[2]; [7]", "value": "rapid (<1 h) increase"}]}, {"molecule": "Cc1ccc2c(c1)C(=O)C1(O)CCN(c3ccccc3)C1=N2", "note": "(centres unmarked) [blebbistatin]", "values": [{"measurement": "tumoroid growth repression by macrophages", "setting": "[3]; 20 μM", "value": "not affected"}]}, {"molecule": "anti-mouse CD47 clone MIAP301 (BioXCell BE0270) (antibody)", "values": [{"measurement": "Kd", "setting": "[4]", "value": 0.025, "unit": "µM"}]}, {"molecule": "anti-mouse/human Tyrp1 clone TA99 (BioXCell BE0151) (antibody)", "values": [{"measurement": "Kd", "setting": "[5]", "value": 0.047, "unit": "µM"}]}, {"molecule": "B1", "values": [{"measurement": "tumoroid elimination and macrophage clusters", "setting": "[3]", "value": "has the opposite effects and disperses macrophages"}, {"measurement": "macrophage clustering in monoculture", "setting": "[6]", "value": "disperse"}]}, {"molecule": "B2", "values": [{"measurement": "tumoroid elimination and macrophage clusters", "setting": "[3]", "value": "promoted"}, {"measurement": "macrophage clustering in monoculture", "setting": "[6]", "value": "cluster"}]}]}
